Columns and labels:
DestiTA [1] = molecular target: T1, DestiTA (Desulfomonile tiedjei, UniProt I4C827, T199N); assay: thermal shift assay (ThermoFluor) on apoenzyme, quadratic fit; assay type: binding; settings: 50 mM K-phosphate, pH 8.0; 2 µM apoenzyme incubated with 0.5–500 µM PLP 1 h at 25 °C; covalent (Schiff base to K158)
T1 construct: gene Desti_3054; recombinant in E. coli Rosetta(DE3) pLysS, codon-optimized gene in modified pET-21d; N-terminal (His)6-TEV tag cut with TEV protease; homodimer about 68 kDa by gel filtration

DestiTA [2] = molecular target: T2, DestiTA (Desulfomonile tiedjei, UniProt I4C827); assay: as above; assay type: binding; settings: 50 mM K-phosphate, pH 8.0; 2 µM apoenzyme incubated with 0.5–500 µM PLP 1 h at 25 °C; covalent (Schiff base to K158)
T2 construct: gene Desti_3054; recombinant in E. coli Rosetta(DE3) pLysS, codon-optimized gene in modified pET-21d; N-terminal (His)6-TEV tag cut with TEV protease; homodimer about 68 kDa by gel filtration
T2 sequence (I4C827 1-302): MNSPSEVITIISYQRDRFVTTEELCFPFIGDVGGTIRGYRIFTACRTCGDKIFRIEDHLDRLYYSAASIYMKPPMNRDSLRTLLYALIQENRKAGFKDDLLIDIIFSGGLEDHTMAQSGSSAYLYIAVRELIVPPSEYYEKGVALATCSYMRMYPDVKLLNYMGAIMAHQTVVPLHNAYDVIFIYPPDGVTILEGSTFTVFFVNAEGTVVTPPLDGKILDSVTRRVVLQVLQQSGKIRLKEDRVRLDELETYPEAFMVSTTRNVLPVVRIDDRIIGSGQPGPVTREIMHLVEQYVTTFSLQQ

DestiTA [3] = molecular target: T3, DestiTA (Desulfomonile tiedjei, UniProt I4C827, T199Q); assay: as above; assay type: binding; settings: 50 mM K-phosphate, pH 8.0; 2 µM apoenzyme incubated with 0.5–500 µM PLP 1 h at 25 °C; covalent (Schiff base to K158)
T3 construct: gene Desti_3054; recombinant in E. coli Rosetta(DE3) pLysS, codon-optimized gene in modified pET-21d; N-terminal (His)6-TEV tag cut with TEV protease; homodimer about 68 kDa by gel filtration

[4] = molecular target: the molecule itself; assay: SEC; gel filtration of the purified enzyme; molecular weight approximately 68 kDa for the WT (subunit 34.2 kDa); self-association, homodimer
purified protein [5] = substrate: C[C@@H](N)C(=O)O; assay: purified protein; settings: co-substrate α-ketoglutarate, 50 mM K-phosphate, 30 µM PLP
purified protein [6] = substrate: O=C(O)CCC(=O)C(=O)O; assay: purified protein; assay type: biochemical, Desulfomonile tiedjei; settings: co-substrate D-alanine, 50 mM K-phosphate, 30 µM PLP
purified protein [7] = substrate: C[C@@H](N)c1ccccc1; assay: purified protein; assay type: biochemical, Desulfomonile tiedjei; settings: co-substrate α-ketoglutarate, 50 mM Na-pyrophosphate, pH 9.0, 50 °C, 30 µM PLP

Molecule: Cc1ncc(COP(=O)(O)O)c(C=O)c1O [PLP]
- Kd (DestiTA [1]): 33 ± 2 µM
- Kd (DestiTA [2]): 11 ± 1 µM
- Kd (DestiTA [3]): 2.2 ± 0.4 µM

B1: DestiTA T43E variant (enzyme, Desulfomonile tiedjei DSM 6799, UniProt I4C827 1-302, looked up)
chain: MNSPSEVITIISYQRDRFVTTEELCFPFIGDVGGTIRGYRIFEACRTCGDKIFRIEDHLDRLYYSAASIYMKPPMNRDSLRTLLYALIQENRKAGFKDDLLIDIIFSGGLEDHTMAQSGSSAYLYIAVRELIVPPSEYYEKGVALATCSYMRMYPDVKLLNYMGAIMAHQTVVPLHNAYDVIFIYPPDGVTILEGSTFTVFFVNAEGTVVTPPLDGKILDSVTRRVVLQVLQQSGKIRLKEDRVRLDELETYPEAFMVSTTRNVLPVVRIDDRIIGSGQPGPVTREIMHLVEQYVTTFSLQQ
notes: DestiTA of Desulfomonile tiedjei DSM 6799, gene Desti_3054, Uniprot ID I4C827_DESTA, with T43E; Made by single-primer site-directed mutagenesis; also called the T43E variant; source: E. coli, purified as described for the WT DestiTA; not shown: His6, N-terminal, cleaved
- stoichiometry N [4]: 2
- Km (purified protein [5]; pH 6.5, 40 °C, pH 6.5, 40.0 °C): 2900 ± 800 µM
- kcat (purified protein [5]; pH 6.5, 40 °C, pH 6.5, 40.0 °C): 0.15 s⁻¹
- kcat/Km (purified protein [5]; pH 6.5, 40 °C, pH 6.5, 40.0 °C): 52 M⁻¹ s⁻¹
- Km (purified protein [6]; pH 6.5, 40 °C): 2800 ± 900 µM
- kcat (purified protein [6]; pH 6.5, 40 °C): 0.15 ± 0.01 s⁻¹
- kcat/Km (purified protein [6]; pH 6.5, 40 °C): 54 ± 30 M⁻¹ s⁻¹

B2: DestiTA T199N variant (enzyme, Desulfomonile tiedjei DSM 6799, UniProt I4C827 1-302, looked up)
chain: MNSPSEVITIISYQRDRFVTTEELCFPFIGDVGGTIRGYRIFTACRTCGDKIFRIEDHLDRLYYSAASIYMKPPMNRDSLRTLLYALIQENRKAGFKDDLLIDIIFSGGLEDHTMAQSGSSAYLYIAVRELIVPPSEYYEKGVALATCSYMRMYPDVKLLNYMGAIMAHQTVVPLHNAYDVIFIYPPDGVTILEGSTFNVFFVNAEGTVVTPPLDGKILDSVTRRVVLQVLQQSGKIRLKEDRVRLDELETYPEAFMVSTTRNVLPVVRIDDRIIGSGQPGPVTREIMHLVEQYVTTFSLQQ
notes: DestiTA of Desulfomonile tiedjei DSM 6799, gene Desti_3054, Uniprot ID I4C827_DESTA, with T199N; Made by single-primer site-directed mutagenesis; also called the T199N variant; source: E. coli, purified as described for the WT DestiTA; not shown: His6, N-terminal, cleaved
- stoichiometry N [4]: 2
- Km (purified protein [5]; pH 8.0, 50 °C, pH 8.0, 50.0 °C): 520 ± 70 µM
- kcat (purified protein [5]; pH 8.0, 50 °C, pH 8.0, 50.0 °C): 5 s⁻¹
- kcat/Km (purified protein [5]; pH 8.0, 50 °C, pH 8.0, 50.0 °C): 10000 ± 2000 M⁻¹ s⁻¹
- Km (purified protein [6]; pH 8.0, 50 °C): 210 ± 30 µM
- kcat (purified protein [6]; pH 8.0, 50 °C): 5 ± 0.2 s⁻¹
- kcat/Km (purified protein [6]; pH 8.0, 50 °C): 24000 ± 4000 M⁻¹ s⁻¹

B3: DestiTA T199Q variant (enzyme, Desulfomonile tiedjei DSM 6799, UniProt I4C827 1-302, looked up)
chain: MNSPSEVITIISYQRDRFVTTEELCFPFIGDVGGTIRGYRIFTACRTCGDKIFRIEDHLDRLYYSAASIYMKPPMNRDSLRTLLYALIQENRKAGFKDDLLIDIIFSGGLEDHTMAQSGSSAYLYIAVRELIVPPSEYYEKGVALATCSYMRMYPDVKLLNYMGAIMAHQTVVPLHNAYDVIFIYPPDGVTILEGSTFQVFFVNAEGTVVTPPLDGKILDSVTRRVVLQVLQQSGKIRLKEDRVRLDELETYPEAFMVSTTRNVLPVVRIDDRIIGSGQPGPVTREIMHLVEQYVTTFSLQQ
notes: DestiTA of Desulfomonile tiedjei DSM 6799, gene Desti_3054, Uniprot ID I4C827_DESTA, with T199Q; Made by single-primer site-directed mutagenesis; also called the T199Q variant; source: E. coli, purified as described for the WT DestiTA; not shown: His6, N-terminal, cleaved
- stoichiometry N [4]: 2
- Km (purified protein [5]; pH 8.0, 50 °C, pH 8.0, 50.0 °C): 50000 ± 6000 µM
- kcat (purified protein [5]; pH 8.0, 50 °C, pH 8.0, 50.0 °C): 8.4 s⁻¹
- kcat/Km (purified protein [5]; pH 8.0, 50 °C, pH 8.0, 50.0 °C): 170 M⁻¹ s⁻¹
- Km (purified protein [6]; pH 8.0, 50 °C): 450 ± 70 µM
- kcat (purified protein [6]; pH 8.0, 50 °C): 8.4 ± 0.4 s⁻¹
- kcat/Km (purified protein [6]; pH 8.0, 50 °C): 19000 ± 4000 M⁻¹ s⁻¹

B4: D-amino acid transaminase from Desulfomonile tiedjei (DestiTA), wild type (enzyme, Desulfomonile tiedjei DSM 6799, UniProt I4C827 1-302, looked up)
chain: MNSPSEVITIISYQRDRFVTTEELCFPFIGDVGGTIRGYRIFTACRTCGDKIFRIEDHLDRLYYSAASIYMKPPMNRDSLRTLLYALIQENRKAGFKDDLLIDIIFSGGLEDHTMAQSGSSAYLYIAVRELIVPPSEYYEKGVALATCSYMRMYPDVKLLNYMGAIMAHQTVVPLHNAYDVIFIYPPDGVTILEGSTFTVFFVNAEGTVVTPPLDGKILDSVTRRVVLQVLQQSGKIRLKEDRVRLDELETYPEAFMVSTTRNVLPVVRIDDRIIGSGQPGPVTREIMHLVEQYVTTFSLQQ
notes: PLP-dependent fold type IV transaminase DestiTA of Desulfomonile tiedjei DSM 6799, gene Desti_3054, Uniprot ID I4C827_DESTA; recombinant DestiTA printed as 302 a.a., 34.2 kDa; codon-optimised synthetic gene in modified pET-21d; N-terminal (His)6-TEV-tag removed with TEV protease; also called WT DestiTA; WT; source: E. coli Rosetta(DE3) pLysS, purified (HisTrap HP, TEV cleavage, second HisTrap HP, …)
- stoichiometry N [4]: 2
- Km (purified protein [5]; pH 8.0, 50 °C, pH 8.0, 50.0 °C): 500 ± 100 µM
- kcat (purified protein [5]; pH 8.0, 50 °C, pH 8.0, 50.0 °C): 5.8 s⁻¹
- kcat/Km (purified protein [5]; pH 8.0, 50 °C, pH 8.0, 50.0 °C): 11600 ± 3000 M⁻¹ s⁻¹
- Km (purified protein [6]; pH 8.0, 50 °C): 110 ± 10 µM
- kcat (purified protein [6]; pH 8.0, 50 °C): 5.8 ± 0.2 s⁻¹
- kcat/Km (purified protein [6]; pH 8.0, 50 °C): 53000 ± 8000 M⁻¹ s⁻¹
- Km (purified protein [7]): 17000 ± 2000 µM
- kcat (purified protein [7]): 0.7 ± 0.1 s⁻¹
- kcat/Km (purified protein [7]): 70 ± 20 M⁻¹ s⁻¹

From PMC12429042, “Contribution of Second-Shell Residues to PLP-Dependent Transaminase Catalysis: A Case Study of D-Amino Acid Transaminase from Desulfomonile tiedjei” (International Journal of Molecular Sciences, 2025)
